In PMC2576301, “The crystal structure of the catalytic domain of a eukaryotic guanylate cyclase” (BMC Structural Biology, 2008):

How the values were obtained:
[1] = molecular target: catalytic domain of the soluble guanylate cyclase CYG12 from Chlamydomonas reinhardtii (Chlamydomonas reinhardtii); test: crystal structure; sitting-drop vapor diffusion, 20°C; 0.1 M sodium cacodylate pH 5.0-6.4, 42-62% saturated (NH4)2HPO4; molecular replacement; 2.55 Å; one dimer per asymmetric unit
[2] = substrate: Nc1nc2c(ncn2[C@@H]2O[C@H](COP(=O)(O)OP(=O)(O)OP(=O)(O)O)[C@@H](O)[C@H]2O)c(=O)[nH]1; test: cGMP formation, enzyme immunoassay; Hill fit; assay type: biochemical, Chlamydomonas reinhardtii; details: 4 mM MnCl2, pH 7.5, 24 °C, 5 mM dithiothreitol, 2 min, positive cooperativity, Hill coefficient 1.49 ± 0.16

| stoichiometry N [1] | Molecule | K0.5 [2] [µM] |
| --- | --- | --- |
| 2 | catalytic domain of the soluble guanylate cyclase CYG12 from Chlamydomonas reinhardtii (domain or fragment) |  |
|  | guanylate cyclase catalytic domain of CYG12 (Chlamydomonas reinhardtii) (protein, catalytic domain, residues 468-655 of 991; His-SMT3 (SUMO) fusion cleaved off; expressed in E. coli Tuner(DE3); homodimer) APAQEHPEATVLFSDIVGFTEIASRSSPLEVCSLLDELYQRFDAAIEEYPQLYKVETIGDAYMVVCNVTVPCDDHADVLLEFALRMHEEASRVASSLGEPVRIRVGMHSGPVVAGVVGRKMPRFCLFGDTVNTASRMESHGEAGQIHISEACYCCLRSKERFEIRERGNITVKGKGTMRTYLLSPLER | 269 ± 26 |
